This note sets out measurements from patent US20040091487A1.

What all share (test): cell-based or functional assay
Assay [1] concerns the target HIV-1 IN H12Y within Gag-Pol (pCMV-H12Y) (HIV-1).
Assay [2] concerns the target HIV-1 IN within Gag-Pol (Gag-Pol polyprotein encoded by pCMVDR8.2) (HIV-1).
Assay [3] deals with HIV-1 IN within Gag-Pol of the molecular clone HIV-1R3B (HIV-1).

In assay [1], “HA-S6 (HA-INI1 aa 183-294) (from UniProt Q12824 183-294)” yielded a decrease in the level of H12Y virion associated p24 production of 10 fold. In assay [2], the % inhibition (as a rule, the percentage by which the read-out fell short of the control) came to 100%; the P24 of culture supernatants was found to be 0 ng/mL; the inhibition of p24 production is 80000 fold. Besides, in assay [3], the % inhibition was more than 99.7% and the p24 of culture supernatants stood at 0.69 ng/mL.

In assay [2], HA-E3 (from UniProt Q12824 183-294) came in with a decrease in the viral titers as compared to the control of 2 fold and an inhibition of p24 production of 2 fold.

In assay [2], “HA-INI1 aa 1-245 (clone 27B) (from UniProt Q12824 1-245)” had a % inhibition of 16% and a P24 of culture supernatants of 95.6 ng/mL.

In assay [2], “HA-INI1 aa 141-385 (clone 20.2) (from UniProt Q12824 141-385)” gave a % inhibition of 69% and a P24 of culture supernatants of 35.4 ng/mL.
